Laboratory results published in the supplement of paper PMC12855868.

B1: library; numbered along this chain (parent)
chain: MAAAGGARLLRAASAVLGGPAGRWLHHAGSRAGSSGLLRNRGPGGSAEASRSLSVSARARSSSEDKITVHFINRDGETLTTKGKVGDSLLDVVVENNLDIDGFGACEGTLACSTCHLIFEDHIYEKLDAITDEENDMLDLAYGLTDRSRLGCQICLTKSMDNMTVRVPETVADARQSIDVGKTS

Variants of: B1
Experiment: scaled log2 fold change in cell abundance, elesclomol vs control (0 = silent mean, 1 = nonsense mean) (scaled log2 ratio); higher = higher viability under elesclomol (loss of FDX1 cuproptosis function)
Conditions: glucose 10 mM
[1] = with ABC1 FDX1 KO, elesclomol 5 nM, 14 days
[2] = with HEK293T FDX1 KO, elesclomol 40 nM, 11 days
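Also: variant abundance is its share of total variant reads in each endpoint sample, from next-generation sequencing of the integrated ORF PCR-amplified out of genomic DNA.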

Variant | scaled log2 fold change [1] | scaled log2 fold change [2]
F103Q | 0.935 | 1.02
F103T | 1.16 | 0.355
F103Y | 0.192 | -0.0547
F103G | 1.04 | 2.28
F103R | 1.09 | 1.06
F103D | 1.07 | 0.779
F103S | 0.912 | 0.923
F103I | 0.186 | 0.171
F103C | 0.693 | 0.536
F103E | 0.983 | 0.679
F103H | 0.673 | 1.17
F103P | 1.14 | 1.17
F103V | 0.282 | -0.441
F103M | 0.347 | 0.516
F103N | 1.06 | 1.03
I100S | 0.183 | 1.01
I100C | -0.292 | 0.943
I100G | -0.02 | 0.208
I100R | 0.287 | 0.0979
I100P | 0.146 | -0.208
I100W | 0.297 | -0.693
I100D | 0.409 | -0.663
I100F | -0.0589 | -0.586
I100T | 0.138 | -0.631

Variant | scaled log2 fold change [1] | scaled log2 fold change [2]
I100Q | 0.155 | 0.874
I100A | 0.162 | -0.8
I100L | -0.145 | 0.198
I100Y | 0.0992 | -0.139
I100K | 0.223 | 0.128
I100E | 0.167 | 0.099
I100N | 0.181 | 0.295
I100V | -0.852 | 0.0203
I100M | -0.119 | -0.526
I100H | 0.0888 | -0.835
D99Y | -0.0205 | 0.198
D99W | -0.0217 | -0.818
D101W | 0.326 | -0.257
D101T | -0.218 | -0.744
D101L | -0.471 | -0.161
D101C | -0.242 | 0.242
D101M | 0.241 | 0.684
D101R | 0.0225 | -0.328
D101G | 0.085 | -0.787
D101K | 0.0609 | 0.803
D101H | -0.018 | -0.455
D101N | -0.201 | -0.0138
D101P | -0.357 | -0.96
D101I | -0.248 | -0.191

Variant | scaled log2 fold change [1] | scaled log2 fold change [2]
D101S | -0.19 | -0.82
D101E | 0.0987 | -0.481
D101Q | 0.0405 | -0.42
D101A | -0.221 | -0.578
D101Y | 0.239 | 1.05
D101F | -0.332 | 0.0209
D101V | 0.24 | -0.613
C106I | 1.16 | 1.5
C106P | 1.07 | 0.899
C106Y | 1.17 | 1.2
C106Q | 0.973 | 1.99
C106E | 1.06 | 1.3
C106F | 1.03 | 1.44
C106K | 1.09 | 1.38
C106G | 1.07 | 1.6
C106A | 1.03 | 1.51
C106H | 1.11 | 1
C106N | 1.18 | 0.906
C106V | 1.17 | 1.11
C106R | 1.07 | 1.14
C106D | 1.03 | 1.3
C106W | 1.05 | 1.27
C106M | 1.1 | 1.09
C106L | 1.09 | 1.32

Variant | scaled log2 fold change [1] | scaled log2 fold change [2]
C106T | 1.19 | 1.27
C106S | 1.19 | 1.14
T109F | -0.985 | -0.223
T109E | -0.14 | 
T109Y | -0.087 | 
T109Q | -0.041 | 
T109C | -0.244 | -0.121
T109H | -0.34 | -0.84
T109M | -0.267 | 1.01
T109V | -0.651 | 
T109A | -0.1 | 0.103
T109G | 0.318 | 0.43
T109L | -0.315 | 0.377
T109D | -0.669 | 0.407
T109K | -0.296 | -0.481
T109I | -0.689 | -0.157
T109S | -1.08 | -0.288
T109N | -0.076 | 0.456
T109P | 0.947 | 0.81
T109R | -0.153 | 1.07
T109W | -0.657 | 0.253
C112G | 1.15 | 1.18
C112E | 1.07 | 0.951
C112F | 1.02 | 1.25

Variant | scaled log2 fold change [1] | scaled log2 fold change [2]
C112D | 0.906 | 2.02
C112A | 1.16 | 1.03
L110Q | -0.0207 | -0.0815
L110H | 0.0622 | 0.156
L110I | -0.0941 | -0.421
L110D | 0.955 | 0.687
L110C | 0.439 | -1.38
L110A | 0.303 | -0.448
L110K | 0.374 | -0.159
L110V | 0.108 | -0.578
L110R | -0.0668 | 1.07
L110W | 0.568 | 0.351
L110E | 0.704 | 0.547
L110M | 0.297 | 0.602
L110T | 0.401 | 0.383
L110N | 0.111 | -0.0165
L110S | -0.279 | 1.18
L110G | -1.14 | -0.656
L110Y | 0.609 | 0.0828
L110P | 0.33 | -0.14
L110F | 0.167 | 0.528
